Reference: patent US20150044169, “METHODS OF […] A […] FAMILY VIRAL INFECTION, COMPOSITIONS FOR […] A […] FAMILY VIRAL INFECTION, AND […] ASSAYS FOR […] COMPOSITIONS FOR […] A […] FAMILY VIRAL INFECTION” (The Board of Trustees of the Leland Stanford Junior …, published 2015)

Target: Gus (beta-glucuronidase) control (UniProt P05804 P05804:1-603)
Experiment: MITOMI Gus-his negative control
Settings: tags: C-terminal 6xHis (Roche Gus-his vector); label: Cy3
From the text: For each experiment, an image was taken after MITOMI and the final PBS wash. This was used to determine the concentration of surface bound protein (FITC channel) as well as surface bound target RNA (Cy3 channel). […] Data from multiple data points were averaged, and their standard deviations calculated. Results were then normalized to 1. Between 10-20 replicates were included for each probe tested. A control protein, Gus-his (Roche) was included in each experiment and subjected to the same analysis. When present, detected signal with Gus-his was used for background subtraction.
A microarray of Cy3-labeled target RNA sequences was used to program a microfluidic device, and binding of bodiby-labeled proteins expressed on the device to the RNA sequences was assayed. Results represent the ratio of bound RNA (median Cy3 signal) to expressed protein (median bodipy signal). Normalized mean values for 10-20 replicates measured in two independent experiments are shown. Error bars represent standard deviation. The grey bars represent binding of HuR-his and the clear bars that of Gus-his, used as a negative control.

Chain of Gus (beta-glucuronidase) control (P05804 whole entry, one chain of several): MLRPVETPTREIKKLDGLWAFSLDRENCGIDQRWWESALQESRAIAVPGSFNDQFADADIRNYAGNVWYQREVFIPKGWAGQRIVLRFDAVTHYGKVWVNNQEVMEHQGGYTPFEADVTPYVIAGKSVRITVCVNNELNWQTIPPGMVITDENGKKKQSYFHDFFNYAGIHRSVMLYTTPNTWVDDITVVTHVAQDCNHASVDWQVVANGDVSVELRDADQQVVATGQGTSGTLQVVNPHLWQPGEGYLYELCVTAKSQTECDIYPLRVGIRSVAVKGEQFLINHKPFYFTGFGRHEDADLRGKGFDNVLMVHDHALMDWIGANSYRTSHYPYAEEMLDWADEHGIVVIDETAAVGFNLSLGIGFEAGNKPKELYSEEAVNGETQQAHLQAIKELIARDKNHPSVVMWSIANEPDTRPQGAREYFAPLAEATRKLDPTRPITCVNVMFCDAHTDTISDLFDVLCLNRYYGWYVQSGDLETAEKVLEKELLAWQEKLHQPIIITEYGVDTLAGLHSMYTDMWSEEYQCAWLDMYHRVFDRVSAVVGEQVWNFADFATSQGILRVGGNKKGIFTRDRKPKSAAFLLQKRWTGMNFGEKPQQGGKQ

Question: Does AUUUAUUUAUUUAUUUA (ssRNA) [4A] bind?
Answer: no binding
